These results are taken from US20230048360A1 (EUREKA THERAPEUTICS, published 2023).

Where two headings read alike, the source gives them in different places.

Assay [1] addresses T1, cell surface-bound human GPC3 on GPC3+ HepG2 cells (human, UniProt P51654 25-560, GPI anchor and heparin sulfate side chains, as the filing describes native GPC3).
T1 construct: Endogenous GPC3 of the HepG2 line; also called Glypican 3; native GPC3
In words: FACS titration on GPC3+ HepG2 cells, anti-His detection; the row is GC33 L2K by paragraph 806.
Method: (§1) APC-conjugated anti-His tag mouse antibody (R&D Systems) was added in a volume of 100 μl, a 20-fold dilution of 5% FBS in PBS and 0.05% NaN₃ and incubated for 1 hour at 4° C. in the dark, then washed twice with PBS. The cells were fixed in 3-fold dilution of fixation buffer (BioLegend) in PBS in a volume of 150 μl. As a separate control, HepG2 cells were also incubated with APC-conjugated anti-His tag mouse antibody (R&D Systems) in the absence of any L2K bispecific antibody.

Assay [2] has as its target T1, cell surface-bound human GPC3 on GPC3+ …. In words: apparent Kd from FACS on GPC3+ HepG2 cells; the row is GC33 L2K by paragraph 806.
Method: as §1
Assay [3] shares this target. Kind of assay: FACS on GPC3+ HepG2 cells, labelled on the sheet GPC3A L2K against control L2K; control L2K median 93.8; axis PE-A.
Method: (§2) APC-conjugated anti-His tag mouse antibody (R&D Systems) was added in a volume of 100 μl, a 20-fold dilution of 5% FBS in PBS and 0.05% NaN₃ and incubated for 1 hour at 4° C. in the dark, then washed twice with PBS. The cells were fixed in 3-fold dilution of fixation buffer (BioLegend) in PBS in a volume of 150 μl.
For assay [4] the target is unchanged. In words: FACS titration on GPC3+ HepG2 cells, anti-His detection.
Method: as §1
For assay [5] the target is unchanged. Kind of assay: apparent Kd from FACS on GPC3+ HepG2 cells.
Method: as §1
Assay [6] concerns the target T2, biotinylated recombinant human GPC3(560) (human, biotin on the C-terminal BirA substrate peptide ; Biotin on a lysine of the C-terminal BirA substrate peptide, which is not in the letters.).
T2 construct: Made in E. coli BL21 (pET-27b) from inclusion bodies and biotinylated with BirA; also called bt-GPC3(560); soluble bt-GPC3(560) protein
Kind of assay: SPR, Biacore X100, single-cycle kinetics, bt-GPC3(560) captured on chip, 1:1 model. On the technique in general: In SPR one partner is held on a chip, and binding of the other changes the refractive index at the surface.
Method: All of the proteins used in the assay were diluted in HBS-E buffer prior to use. Briefly, 5-10 μg/ml of bt-GPC3₍₅₆₀₎ was immobilized onto a sensor chip pre-functionalized with CAPture Reagent and injected onto the flow cell. Affinity of the L2K bispecific antibodies for immobilized antigen was measured by injection of the various bispecific antibodies at 0.3-5 mg/ml with a 90 second association phase followed by a 90 second dissociation phase at a flow rate of 30 μl/min. At the end of each run, the surface of the sensor chip was regenerated using the reagents provided in the Biotin CAPture kit. Binding constants were determined by nonlinear regression analysis using a 1:1 binding model (BIACORE™ X-100 evaluation software, FIGS. 15A and 15B). The association-on-rate-kₒₙ, affinity constant-kₐ, dissociation constant-kd, and equilibrium dissociation constant-Kd were then calculated for each L2K clone (Table 14).

For assay [7], the target named is T3, biotinylated GPC3-51mer fragment (human, biotinylated (site not stated)).
T3 construct: Synthesized by Elim Biopharmaceuticals; also called bt-GPC3-51mer; hGPC3-51mer fragment
T3 peptide: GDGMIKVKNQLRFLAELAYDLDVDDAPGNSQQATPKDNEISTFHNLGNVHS
Kind of assay: phage ELISA on biotinylated GPC3-51mer. (In general: In an ELISA, binding on a coated surface is turned into a signal by an enzyme label.)

Assay [8] addresses T1, cell surface-bound human GPC3 on GPC3+ …. In words: flow cytometry at 10 µg/mL, PE anti-mouse IgG detection. For orientation: Flow cytometry measures light scatter and fluorescence of single cells or particles in a stream.
Method: Anti-GPC3 mIgG1 antibodies were tested for the binding towards GPC3-positive HepG2 and GPC3-negative SK-Hep1 cells by flow cytometry. 10 μg/mL of constructed antibody was added to cells on ice for 1 hour.
Assay [9] addresses T4, full-length human GPC3 over-expressed on SK-Hep1-GPC3 cells (human, UniProt P51654 25-560).
T4 construct: also called GPC3 over-expressing SK-Hep1 cells
Kind of assay: FACS, GPC3A L2K on SK-Hep1-GPC3 cells, APC anti-His; same L2K on GPC3-negative SK-Hep1 median 61.6.
Method: Cells were then washed once with PBS. APC-conjugated anti-His tag mouse antibody (R&D Systems) was added to the washed cells in a volume of 100 μl, at 20-fold dilution of 5% FBS in PBS and 0.05% NAN₃ and incubated for 1 hour at 4° C. in the dark. The cells were then washed twice with PBS. The cells were fixed in 3-fold dilution of fixation buffer (BioLegend) in PBS in a volume of 150 μl.

For assay [10], the target named is T1, cell surface-bound human GPC3 on GPC3+ …. Kind of assay: FACS on GPC3+ HepG2 cells, labelled on the sheet GPC3A L2K against control L2K; control L2K median 93.8; axis PE-A. This is another data set of the same source.
Method: as §2
Assay [11] shares this target. In words: FACS, phage on GPC3+ HepG2 cells.
Method: The E-APLPHA™ scFv phage libraries were screened (panned) against human GPC3 by co-incubation with recombinant GPC3-expressing SK-Hep1 cells (SK-Hep1-GPC3), then confirmed by binding to GPC3+ HepG2 cells, both with flow cytometry (see Methods). 0.2 million SK-Hep1-GPC3 cells were co-incubated with the phage library (about 1×10⁷ pfu) for 1 hours at 4° C. The cell/phage mixture was washed in PBST, incubated with mouse anti-M13 antibody for 1 hour at 4° C., washed again in PBST, then incubated for 30 minutes in the dark at 4° C. with PE-conjugated anti-mouse IgG, and subjected to FACS analysis.
FACS was performed as described in Methods. […] Then cells were washed with PBS and fixed.

B1: GC33 L2K (bispecific antibody, V domains shown)
VH: QVQLQQSGAELVKPGASVKLSCKASGYTFTDYEMHWVKQTPVHGLKWMIGALDPKTGDTAYSQKFKGKATLTADKSSSTAYMELRSLTSEDSAVYYCTRFYSYTYWGQGTLVTVSA
VL: DVVMTQTPLSLPVSLGDQASISCRSSQSLVHSNGNTYLHWYLQKPGQSPKLLIYKVSNRFSGVPDRFSGSGSGTDFTLKISRVEAEDLGVYFCSQNTHVPPTFGSGTKLEIK
notes: Tested as a single-chain tandem di-scFv: scFv of GC33 fused to an anti-human CD3 epsilon scFv, with a hexahistidine tag; also called GC33 antibody converted to an L2K
By EC50 is commonly meant the concentration that produces a half-maximal response. Consider B1, for which it took 0.14 µg/mL to reach a half-maximal effect in [1] (EC50). Moreover, the Kd in assay [2] was 2.7 nM.

B2: GPC3A-58 L2K (bispecific antibody)
chain: QSVLTQPPSVSVAPGKTARITCGGNNIGSKSVHWYQQKPGQAPVLVVYDDSDRPSGIPERFSGSNSGNTATLTISRVEAGDEADYYCQVWDSSSDHVFGTGTKVTVLGSRGGGGSGGGGSGGGGSLEMAQVQLVQSGADVRKPGASVKVSCKASGYTFASHGISWVRQAPGQGLEWLGWISPYTGNTNYAQKFQGRVTMATDTSTSTAYMELRSLRSDDTAIYYCARGKRTLASCFDYWGQGTLVTVSSTSGGGGSDVQLVQSGAEVKKPGASVKVSCKASGYTFTRYTMHWVRQAPGQGLEWIGYINPSRGYTNYADSVKGRFTITTDKSTSTAYMELSSLRSEDTATYYCARYYDDHYCLDYWGQGTTVTVSSGEGTSTGSGGSGGSGGADDIVLTQSPATLSLSPGERATLSCRASQSVSYMNWYQQKPGKAPKRWIYDTSKVASGVPARFSGSGSGTDYSLTINSLEAEDAATYYCQQWSSNPLTFGGGTKVEIKHHHHHH
notes: also called GPC3A L2K bispecific antibody #58
By koff is commonly meant the rate constant with which the complex falls apart. For orientation: kon means a measure of how fast the partners come together. Regarding B2, the “Median : PE-A” value in [3] amounted to 8030. For the same molecule, the EC50 in [4] amounted to 0.12 µg/mL. Further, in assay [5], the Kd came out at 2.4 nM. Moreover, in assay [6], the Kd is 5.1 nM, the koff came to 0.00188 s⁻¹ and the kon stood at 368000 M⁻¹ s⁻¹.

B3: GPC3A-42 phage clone (scFv)
scFv: SYVLTQPPSASGTPGQRVTISCFGSSSDIGSNSVFWYQQLPGAAPKLLIYSTQYRPSGVPDRFSGSKSGTSASLAISGLQSEDEAEYHCATWDDSLNGYVFGSGTKVTVLGSRGGGGSGGGGSGGGGSLEMAQVQLQQSGAEVKKPGASVKVSCKASGYSFTGYYVYWMRQAPGKGLEWMGWMNPRSGGTNYAQKFQGRVTMTRDTSISTAYMELSRLTSDDTAVYYCARSSYYWADSWGQGTLVTVSS
notes: also called GPC3A-042
For the molecule B3, the binding result in assay [7] was “no binding”.

B4: #64 GPC3A L2K (bispecific antibody)
tandem di-scFv: LPVLTQPPSLSVAPGKTARLTCGGNNIGSKSVHWYHQKPGQAPVLVVYDDTDRPSGIPERFSGSNSGNTAALTISRVEVGDEADYYCQVWDRSSAHWVFGGGTKLTVLGSRGGGGSGGGGSGGGGSLEMAQMQLVQSGAEVKKPGASVKVSCKASGYTFTIYGISWVRQAPGQGLEWMGWISPYNDNTIYAQKVQGRVTMTTDTSTSTAYMELRSLRSDDTAVYYCARMGVGWGYAQDSWGQGTLVTVSSTSGGGGSDVQLVQSGAEVKKPGASVKVSCKASGYTFTRYTMHWVRQAPGQGLEWIGYINPSRGYTNYADSVKGRFTITTDKSTSTAYMELSSLRSEDTATYYCARYYDDHYCLDYWGQGTTVTVSSGEGTSTGSGGSGGSGGADDIVLTQSPATLSLSPGERATLSCRASQSVSYMNWYQQKPGKAPKRWIYDTSKVASGVPARFSGSGSGTDYSLTINSLEAEDAATYYCQQWSSNPLTFGGGTKVEIKHHHHHH
notes: also called GPC3A-64 L2K; GPC3-64 L2K
As to B4, in [3], the “Median : PE-A” value was 6600.

B5: GPC3A-37 phage clone (scFv)
scFv: QSVLTQPPSVSAAPGQRVTISCSGTRSNIGSDYVSWYQHLPGTAPKLLVYGDNLRPSGIPDRFSASKSGTSATLGITGLQTGDEADYYCGTWDYTLNGVVFGGGTKLTVLGSRGGGGSGGGGSGGGGSLEMAQVQLVESGGGLVQPGGSLRLSCAASGFTFSSYAMSWVRQAPGKGLEWVSVIYSGGSSTYYADSVKGRFTISRDNSKNTLYLQMNSLRAEDTAVYYCARTSYLNHGDYWGQGTLVTVSS
notes: also called GPC3A-037
As for B5, in assay [7], the binding result is “no binding”.

B6: anti-GPC3 mIgG1 clone A-64 (antibody, V domains shown)
VH: QMQLVQSGAEVKKPGASVKVSCKASGYTFTIYGISWVRQAPGQGLEWMGWISPYNDNTIYAQKVQGRVTMTTDTSTSTAYMELRSLRSDDTAVYYCARMGVGWGYAQDSWGQGTLVTVSS
VL: LPVLTQPPSLSVAPGKTARLTCGGNNIGSKSVHWYHQKPGQAPVLVVYDDTDRPSGIPERFSGSNSGNTAALTISRVEVGDEADYYCQVWDRSSAHWVFGGGTKLTVLG
notes: Fused to mouse IgG1 heavy chain and light chain constant regions
On to B6, for which the binding result in assay [8] is on record as “binds”.

B7: GPC3A-46 L2K (bispecific antibody)
chain: QAVLTQPPSVSGTPGQRVTISCSGSSSNFGSNTVHWYQQVPGTAPKLLIFSNTQRPSEIPDRFSGSKSGTSASLAISGLQSEDEADYYCAAWDDSLTGVVFGGGTKLTVLGSRGGGGSGGGGSGGGGSLEMAQVQLVQSGAEVKKPGASVTVSCKASGYRFSNYGVSWVRQAPGQGLEWMGWISGSNGNTNYAQKFLGRVTMTTDTSTTTAYMELSSLRSDDTAVYYCARGNRRYYSPIIDPWGQGTLVTVSSTSGGGGSDVQLVQSGAEVKKPGASVKVSCKASGYTFTRYTMHWVRQAPGQGLEWIGYINPSRGYTNYADSVKGRFTITTDKSTSTAYMELSSLRSEDTATYYCARYYDDHYCLDYWGQGTTVTVSSGEGTSTGSGGSGGSGGADDIVLTQSPATLSLSPGERATLSCRASQSVSYMNWYQQKPGKAPKRWIYDTSKVASGVPARFSGSGSGTDYSLTINSLEAEDAATYYCQQWSSNPLTFGGGTKVEIKHHHHHH
Turning to B7, the “Median : APC-A” value in assay [9] was determined as 657. Moreover, in assay [10], the “Median : PE-A” value was determined as 9860. In addition, a half-maximal effect in assay [4] (EC50) was put at 0.05 µg/mL. Moreover, the Kd in assay [5] came out at 1 nM. In assay [6], the Kd was 3.2 nM, the koff worked out at 0.00129 s⁻¹ and the kon was 399000 M⁻¹ s⁻¹.

B8: anti-GPC3 mIgG1 clone A-51 (antibody, V domains shown)
VH: QVQLVQSGAEVKKPGSSVKVSCKASGGAFSSYAISWVRQAPGQGLEWMGGIIPIFGTANYAQKFQGRVTITADESTSTAYMELSSLRSEDTAVYYCARMLYLSGRYYWDSWGQGTLVTVSS
VL: QAVLTQPSSASGAPGQRVTISCTGGSSNIGAGYDVHWYQQLPGTAPKLLIYGNSNRPSGVPDRFSGSKSGTSASLAITGLQAEDEADYYCQSYDSSLSGYVFGTGTKVTVLG
notes: as for B6
As for B8, the binding result in assay [8] is recorded as “binds”.

B9: GPC3A-62 phage clone (scFv)
scFv: QSVLTQPPSVSGAPGQRVTISCTGSSSNIGAGYDVHWYQQLPGTAPKLLIYGNSNWPSGVPDRFSGSKSGTSASLAITGLRAEDEADYYCQSYDSSLSGSYVFGTGTKVTVLGSRGGGGSGGGGSGGGGSLEMAQMQLVQSGSELKKPGASVKVSCKASGGTFSSYAISWVRQAPGQGLEWMGGIIPKIGTANYAQKFQGRVTITADESTSTAYMELSSLRSEDTAMYYCARMYMDMGWGWGYWDWWGQGTLVTVSS
notes: also called GPC3A-062
B9: the binding result in assay [11] is on record as “binds”.

B10: GPC3A-38 phage clone (scFv)
scFv: QSVLTQPPSVSVAPGKTARITCGGNNIGSKSVHWYQQKPGQAPVLVIYYDSDRPSGIPERFSGSNSGNTATLTISRVEAGDEADYYCQVWDSSSDHVVFGGGTKLTVLGSRGGGGSGGGGSGGGGSLEMAQVQLVQSGAEVKKPGASVKVSCKASGYTFTSYYMHWVRQAPGQGLEWMGIINPSGGSTSYAQKFQGRVTMTRDTSTSTVYMELSSLRSEDTAVYYCARKVTGYDSWGQGTLVTVSS
notes: also called GPC3A-038
With B10, the binding result in [11] is “binds”.

B11: GPC3A-43 phage clone (scFv)
scFv: QSVLTQPPSASGTPGQRVTISCSGSSSNIGTNYVYWYQQLPGTAPKLIIYRNNQRPSGVPDRFSGSESGTSASLAISGLRSEDEADYYCAVWDDSLSGVVFGGGTKLTVLGSRGGGGSGGGGSGGGGSLEMAEVQLVQSGAEVKKPGATVKVSCKVSGYTFTDYYMHWVQQAPGKGLEWMGLVDPEDGETIYAEKFQGRVTITADTSTDTAYMELSSLRSEDTAVYYCARELRDVAYYPWGVEDFWGQGTLVTVSS
notes: also called GPC3A-043
Consider B11, for which, in assay [7], the binding result is “no binding”.
